This is an account of results in publication doi:10.1101/2024.05.03.592134.

For test [1], the target named is Bxy_22780 wild-type (β-1,2-galactosidase from Bacteroides xylanisolvens, GH35) (Bacteroides xylanisolvens). Description: crystal structure.
In test [2] the target is Bxy_22780 E350G mutant (nucleophile mutant) (Bacteroides xylanisolvens). Briefly: crystal structure.

As for “Bxy_22780 wild-type (β-1,2-galactosidase from Bacteroides xylanisolvens, GH35) (enzyme)”, the stoichiometry N in test [1] came out at 4.

With “Bxy_22780 E350G mutant (nucleophile mutant) (enzyme)”, the stoichiometry N in test [2] is 4.

As usually defined, the stoichiometry N is a count of units in the complex or per binding partner.
